From patent US20180282410A1 (Hoffmann-La Roche, published 2018)

T1: recombinant cynomolgus Robo 4 ECD fused to AcTEV protease recognition site, Avi- and 6xHis-tag (cynomolgus)
T1 construct: Biotinylated in the avidity assay
T1 chain: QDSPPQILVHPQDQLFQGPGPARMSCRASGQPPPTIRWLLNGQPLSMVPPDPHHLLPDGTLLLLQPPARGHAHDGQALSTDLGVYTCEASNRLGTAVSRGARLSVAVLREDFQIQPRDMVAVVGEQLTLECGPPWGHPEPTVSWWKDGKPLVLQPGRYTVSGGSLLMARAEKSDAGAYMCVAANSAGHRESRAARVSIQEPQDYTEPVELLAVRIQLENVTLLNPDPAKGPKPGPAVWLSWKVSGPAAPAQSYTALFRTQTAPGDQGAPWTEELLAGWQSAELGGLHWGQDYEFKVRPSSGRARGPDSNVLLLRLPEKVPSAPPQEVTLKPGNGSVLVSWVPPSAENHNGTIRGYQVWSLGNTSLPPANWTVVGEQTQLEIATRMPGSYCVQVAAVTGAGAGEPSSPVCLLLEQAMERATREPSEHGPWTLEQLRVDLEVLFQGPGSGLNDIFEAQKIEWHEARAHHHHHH

T2: murine (mu) Robo 4 ECD-PreS-Avi-His (mouse)
T2 construct: also called recombinant murine Robo 4; murine Robo 4
T2 chain: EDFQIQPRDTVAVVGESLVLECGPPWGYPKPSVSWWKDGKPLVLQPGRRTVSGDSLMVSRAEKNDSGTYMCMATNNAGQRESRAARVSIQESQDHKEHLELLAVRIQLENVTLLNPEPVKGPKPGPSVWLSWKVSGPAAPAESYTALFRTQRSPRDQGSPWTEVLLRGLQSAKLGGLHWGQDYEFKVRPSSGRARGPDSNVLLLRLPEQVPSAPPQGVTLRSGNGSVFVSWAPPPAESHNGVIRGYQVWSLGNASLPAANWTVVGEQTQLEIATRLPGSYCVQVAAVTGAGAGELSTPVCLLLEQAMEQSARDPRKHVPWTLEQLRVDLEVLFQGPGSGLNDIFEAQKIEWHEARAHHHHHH

B1: 01F09 anti-Robo 4 IgG (antibody, V domains shown)
VH: QIQLQESGPGLVKPSQSLSLTCSVTGYSISSGSLWTWIRQFPGNNLEWMGYISYAGGIDYNPSLTSRISITRDTSRNQFFLQLESVTTQDTATYYCATPGGYPFHFDYWGQGTMVTVSS
VL: QPVLTQSPSASASLGASVKLTCTLNSQFSTYNIGWYQQHRDKPPKYVMFVKGDGGHSKADGIPDRFSGSSSGADRYLTISNIQAEDEAIYFCGADYNNAGQYGCVFGSGTHFTVLG
notes: also called 01F09 IgG
B2: 7G2 anti-Robo 4 IgG (antibody, V domains shown)
VH: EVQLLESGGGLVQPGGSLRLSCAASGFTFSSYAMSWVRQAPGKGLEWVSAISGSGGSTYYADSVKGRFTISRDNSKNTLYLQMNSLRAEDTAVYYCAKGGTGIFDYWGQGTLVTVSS
VL: EIVLTQSPGTLSLSPGERATLSCRASQSVSSSYLAWYQQKPGQAPRLLIYGASSRATGIPDRFSGSGSGTDFTLTISRLEPEDFAVYYCQQGQLPPRTFGQGTKVEIK
notes: also called 7G2 IgG
B3: 01F05 anti-Robo 4 IgG (antibody, V domains shown)
VH: QVQLKQSGAELVKPGASVKISCKTSVYTFTYGYMHWVEQKPGQGLEWIGRIDPDSGNSMYNQKFQGRATLTRDKSSSTVYMELRSLTSEDSAVYYCARSMRYSGYRDYALDLWGQGTQVTVSS
VL: QLVLTQSPSASASLGASVKLTCTLSSQHSSYGITWLQQHPDKAPKYVMYLKSDGSHTKGADIPDRFSGSSSGVHRYLSISNVQPEDEAIYFCVTYDSTHVFGSGTQLTVLG
notes: also called 01F05 IgG
B4: 01E06 anti-Robo 4 IgG (antibody, V domains shown)
VH: EVQLVESGGGLSQPGNSLKLSCEASGFTFRNYDMSWVRQAPGKGLEWVAYISSGGGPIYYVDAVKGRFTISRDNAKNLLFLQMNNLRSEDTAVYYCARDLADIGVFDYWGQGTMVTVSS
VL: DFKMTQSPDILSPSLGESVTITCQSSQNIYSNLAWYQQKPGEHPKLLIYTASILADGIPSRFTGSGSGTQFSLKISSLQPDDVANYYCQQYVYYRTFGPGTKLEIK
notes: also called 01E06 IgG

What was measured:
[1] = target: T1, recombinant cynomolgus Robo 4 ECD fused …; assay: SPR Biacore T100, biotinylated antigen on streptavidin chip, IgG as analyte (avidity)
Protocol: (§1) All surface plasmon resonance (SPR) experiments are performed on a Biacore T100 at 25° C. with HBS-EP as running buffer (0.01 M HEPES pH 7.4, 0.15 M NaCl, 3 mM EDTA, 0.005% Surfactant P20 (Biacore)).
Determination of avidity was done by direct immobilization of biotinylated recombinant human, murine and cynomolgus Robo 4 on a Streptavidin sensor chip. Immobilization level ranged from 300 to 1000 RU. Anti-Robo 4 antibodies were passed through the flow cells for 220 s at 30 μl/min in a concentration range from 0.78-50 nM. Dissociation was monitored for 220 s. For the blank and the 25 nM injection dissociation was monitored for 600 s.
(§2) Kinetic constants were derived using the Biacore T100 Evaluation Software (vAA, Biacore), to fit rate equations for 1:1 Langmuir binding by numerical integration.

[2] = target: T2, murine (mu) Robo 4 ECD-PreS-Avi-His; assay: SPR Biacore T100, IgG captured via anti-human Fab, antigen as analyte
Protocol: as §1
Anti Robo 4 antibodies were captured for 60 s at 50 nM. Recombinant human, murine and cynomolgus Robo 4 were passed at a concentration range from 0.46-1000 nM with a flow of 30 μl/min through the flow cells over 90 s. The dissociation was monitored for 120 s. Bulk refractive index differences were corrected for by subtracting the response obtained on a reference flow cell. Here, the antigens were flown over a surface with immobilized anti-human Fab specific antibody on which HBS-EP has been injected rather than the antibodies.
as §2

Binder	Kd [1]	koff [1]	kon [1]	binding result [2]
B1	370 pM	0.000817 s⁻¹	2.22e+06 M⁻¹ s⁻¹	–
B2	940 pM	0.000291 s⁻¹	310000 M⁻¹ s⁻¹	no binding (tested: antigen 0.46-1000 nM)
B3	580 pM	0.000475 s⁻¹	822000 M⁻¹ s⁻¹	–
B4	0.1 pM	–	1.13e+06 M⁻¹ s⁻¹	–
